From patent US20210206841A1 (RESEARCH INSTITUTE AT NATIONWIDE CHILDREN S HOSPITAL, published 2021) come the findings set out here.

The chains are these.
T1: tail-chimeric peptide IhfA3-IhfB2NTHI (nontypeable Haemophilus influenzae …)
T1 construct: also called IHF(NTHI) tail chimeric peptide; IHFNTHI tail chimeric peptide
T1 peptide: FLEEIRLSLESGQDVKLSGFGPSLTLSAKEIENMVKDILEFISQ

T2: tip-chimeric peptide IhfA5-mIhfB4NTHI (nontypeable Haemophilus influenzae …)
T2 construct: also called IHF(NTHI) tip chimeric peptide; IHFNTHI tip chimeric peptide
T2 peptide: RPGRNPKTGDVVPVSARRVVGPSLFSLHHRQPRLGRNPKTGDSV

T3: native IHFNTHI (integration host factor of nontypeable Haemophilus influenzae) (nontypeable Haemophilus influenzae …, UniProt P43723 1-96; P43724 1-94)
T3 construct: also called NTHI IHF
T3 sequence 1: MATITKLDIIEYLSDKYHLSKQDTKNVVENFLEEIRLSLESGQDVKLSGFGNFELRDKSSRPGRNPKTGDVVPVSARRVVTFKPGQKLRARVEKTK
T3 sequence 2: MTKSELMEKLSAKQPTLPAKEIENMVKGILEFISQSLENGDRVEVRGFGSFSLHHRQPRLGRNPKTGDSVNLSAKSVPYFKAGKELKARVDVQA

B1: humanized anti-tail monoclonal antibody, heavy chain SEQ ID NO: 4 and light chain SEQ ID NO: 10 (antibody, V domains shown)
VH: EVQLVESGGGLVKPGGSLRLSCAASGFTFSRYGMSWVRQAPGKGLEWVATISSGGSYTYYTDSVKGRFTISRDNAKNSLYLQMNSLRAEDTAVYYCERHGGDGYWYFDVWGQGTMVTVSS
VL: DIQMTQSPSSLSASVGDRVTITCRASQDISNYLNWYQQKPGKAVKLLIYYTSRLHSGVPSRFSGSGSGTDYTLTISSLQPEDFATYFCQQGNPLRTFGGGTKVEIKR
notes: also called HuTailMab; TP-21958
B2: humanized anti-tail monoclonal antibody, heavy chain SEQ ID NO: 4 and light chain SEQ ID NO: 12 (antibody, V domains shown)
VH: B1 VH
VL: DIVMTQSPATLSLSPGERATLSCRASQDISNYLNWYQQKPGQAVRLLIYYTSRLHSGIPARFSGSGSGTDYTLTISSLEPEDFAVYFCQQGNPLRTFGGGTKVEIKR
notes: also called H10213 (11E7.C7 Humanized HC1) + L10215 (11E7.C7 Humanized LC3)
B3: humanized anti-tail monoclonal antibody, heavy chain SEQ ID NO: 5 and light chain SEQ ID NO: 12 (antibody, V domains shown)
VH: B1 VH with A49S
VL: B2 VL
notes: also called H10214 (11E7.C7 Humanized HC2) + L10215 (11E7.C7 Humanized LC3)
B4: humanized anti-tail monoclonal antibody, heavy chain SEQ ID NO: 6 and light chain SEQ ID NO: 10 (antibody, V domains shown)
VH: B1 VH with K13Q, G16R, A23T, S78I, R87K, A88T
VL: B1 VL
notes: also called H10215 (11E7.C7 Humanized HC3) + L10213 (11E7.C7 Humanized LC1)
B5: humanized anti-tail monoclonal antibody, heavy chain SEQ ID NO: 5 and light chain SEQ ID NO: 10 (antibody, V domains shown)
VH: B1 VH with A49S
VL: B1 VL
notes: also called H10214 (11E7.C7 Humanized HC2) + L10213 (11E7.C7 Humanized LC1)
B6: humanized anti-tail monoclonal antibody, heavy chain SEQ ID NO: 6 and light chain SEQ ID NO: 11 (antibody, V domains shown)
VH: B1 VH with K13Q, G16R, A23T, S78I, R87K, A88T
VL: B1 VL with F87Y
notes: also called H10215 (11E7.C7 Humanized HC3) + L10214 (11E7.C7 Humanized LC2)
B7: humanized anti-tail monoclonal antibody, heavy chain SEQ ID NO: 4 and light chain SEQ ID NO: 11 (antibody, V domains shown)
VH: B1 VH
VL: B1 VL with F87Y
notes: also called H10213 (11E7.C7 Humanized HC1) + L10214 (11E7.C7 Humanized LC2)
B8: humanized anti-tail monoclonal antibody, heavy chain SEQ ID NO: 6 and light chain SEQ ID NO: 12 (antibody, V domains shown)
VH: B1 VH with K13Q, G16R, A23T, S78I, R87K, A88T
VL: B2 VL
notes: also called H10215 (11E7.C7 Humanized HC3) + L10215 (11E7.C7 Humanized LC3)
B9: humanized anti-tail monoclonal antibody, heavy chain SEQ ID NO: 5 and light chain SEQ ID NO: 11 (antibody, V domains shown)
VH: B1 VH with A49S
VL: B1 VL with F87Y
notes: also called H10214 (11E7.C7 Humanized HC2) + L10214 (11E7.C7 Humanized LC2)
B10: humanized anti-tip monoclonal antibody, heavy chain SEQ ID NO: 3 and light chain SEQ ID NO: 8 (antibody, V domains shown)
VH: EVKLVQSGAEVKKPGASVKVSCKASGFTFRTYAMSWVRQAPGQRLEWVATIGSDRRHTYYPDKFQGRVTITRDNAKNTLYMELSSLRSEDTAVYYCVGPYDGYYGEFDYWGQGTLVTVSS
VL: DVVMTQSPLSLPVTLGQPASISCRSSQSLLDSDGKTFLNWLQQRPGQSPRRLIYLVSKRDSGVPDRFSGSGSGTDFTLKISRVEAEDVGVYYCWQGTHFPYTFGQGTKLEIKR
notes: also called H10212 (1F8.F1 Humanized HC3) + L10211 (1F8.F1 Humanized LC2)
B11: humanized anti-tip monoclonal antibody, heavy chain SEQ ID NO: 3 and light chain SEQ ID NO: 9 (antibody, V domains shown)
VH: B10 VH
VL: DVVMTQSPDSLAVSLGERATINCKSSQSLLDSDGKTFLNWLQQKPGQPPKRLIYLVSKLDSGVPDRFSGSGSGTDFTLTISSLQAEDVAVYYCWQGTHFPYTFGQGTKLEIKR
notes: also called H10212 (1F8.F1 Humanized HC3) + L10212 (1F8.F1 Humanized LC3)

The term EC50 denotes the concentration needed to bring the measured effect to its halfway point. Low readings indicate higher potency in that assay, high ones lower potency in that assay. Broadly, the Kd is the concentration at which binding is half-saturated. Higher therefore signals a looser complex. As a reminder, the koff is the first-order rate constant of dissociation. Lower therefore signals slow dissociation. A word on the kon: it is a measure of how fast the partners come together. Read a low kon as slow association.

Where a chain is given by its changes, count along the chain named.

One experiment has as its target T1, tail-chimeric peptide IhfA3-IhfB2NTHI. Briefly: direct ELISA #1, peptide coated (curves not reaching equilibrium). For orientation: ELISA stands for enzyme-linked immunosorbent assay.
For B1, it took 0.01 µg/mL to reach a half-maximal effect (EC50).
Same read-out and setting: to B2 belongs 0.012 µg/mL; to B3, 0.015 µg/mL; to B4, 0.013 µg/mL.
Still for that read-out and setting: to B5 belongs 0.007 µg/mL; to B6, 0.011 µg/mL; to B7, 0.011 µg/mL.
Take B8: the EC50 worked out at 0.008 µg/mL.
As to B9, a half-maximal effect (EC50) was put at 0.014 µg/mL.

The target is the same in another experiment. In words: SPR Biacore 3000, HuMab immobilized, peptide as analyte. A general note: SPR reads the build-up and loss of mass on a sensor chip optically.
Regarding B1, the Kd came out at 29.6 nM, the koff came to 0.00033 s⁻¹ and the kon worked out at 11000 M⁻¹ s⁻¹.
Molecule B3 came in with a Kd of 23 nM, a dissociation rate constant (koff) of 0.00044 s⁻¹ and a kon of 20000 M⁻¹ s⁻¹.
In the same order, the values of B4 are 72 nM, 0.0013 s⁻¹ and 18000 M⁻¹ s⁻¹.
B5 gave a Kd of 60 nM, a koff of 0.00029 s⁻¹ and a kon of 4800 M⁻¹ s⁻¹.
In the same order, the values of B6 are 67 nM, 0.0013 s⁻¹ and 33000 M⁻¹ s⁻¹.
As to B7, the Kd came to 62.2 nM, the koff was found to be 0.00027 s⁻¹ and the kon is about 4300 M⁻¹ s⁻¹.
For B8, the Kd turned out to be 13 nM, the koff amounted to 0.0021 s⁻¹ and the kon came out at 160000 M⁻¹ s⁻¹.
In the same order, the values of B9 are 47 nM, 0.00027 s⁻¹ and 5700 M⁻¹ s⁻¹.

In another experiment the target is T2, tip-chimeric peptide IhfA5-mIhfB4NTHI. In words: direct ELISA #1, peptide coated (curves not reaching equilibrium).
Take B10: a half-maximal effect (EC50) was put at 0.066 µg/mL.
The same measure, in the same setting: to B11 belongs 0.035 µg/mL.

Another experiment deals with T3, native IHFNTHI (integration host factor …). In words: SPR Biacore 3000, IHFNTHI immobilized, HuMab as analyte.
B10 displayed a Kd of 115 nM, a koff of 0.00021 s⁻¹ and a kon of 1800 M⁻¹ s⁻¹.
For B11 the same measures were 3400 nM, 0.016 s⁻¹ and 4600 M⁻¹ s⁻¹.

Another experiment addresses T2, tip-chimeric peptide IhfA5-mIhfB4NTHI. In words: direct ELISA #2, peptide coated (curves reaching equilibrium).
The molecule B10 showed an EC50 of 0.0934 µg/mL.
In the case of B11, the EC50 amounted to 0.111 µg/mL.

The next experiment has as its target T3, native IHFNTHI (integration host factor …). Briefly: SPR Biacore 3000, HuMab immobilized, IHFNTHI as analyte.
As for B10, the Kd is 245 nM, the koff stood at 0.0018 s⁻¹ and the kon stood at 7500 M⁻¹ s⁻¹.
For B11 the same measures were 1600 nM, 0.0027 s⁻¹ and 1700 M⁻¹ s⁻¹.

The target of a further experiment is T2, tip-chimeric peptide IhfA5-mIhfB4NTHI. In words: SPR Biacore 3000, HuMab immobilized, peptide as analyte.
In the case of B10, the Kd was found to be 20 nM, the koff stood at 0.0019 s⁻¹ and the kon turned out to be 95000 M⁻¹ s⁻¹.
As to B11, the Kd was determined as 200 nM, the koff worked out at 0.0019 s⁻¹ and the kon came to 9500 M⁻¹ s⁻¹.

In the next experiment the target is T1, tail-chimeric peptide IhfA3-IhfB2NTHI. In words: SPR Biacore 3000, peptide immobilized, HuMab as analyte.
B1: the Kd was found to be 4.3 nM, the koff stood at 0.00064 s⁻¹ and the kon amounted to 150000 M⁻¹ s⁻¹.
With B2, the affinity, expressed as Kd, was 5.1 nM; the koff is 0.00056 s⁻¹; the kon was found to be 110000 M⁻¹ s⁻¹.
Take B3: the Kd was 9.1 nM, the koff is 0.00077 s⁻¹ and the kon is 85000 M⁻¹ s⁻¹.
In turn, B4 showed a Kd of 2.5 nM, a koff of 0.00046 s⁻¹ and a kon of 180000 M⁻¹ s⁻¹.
In the same order, the values of B5 are 6.1 nM, 0.00082 s⁻¹ and 130000 M⁻¹ s⁻¹.
In the same order, the values of B6 are 1 nM, 0.00016 s⁻¹ and 160000 M⁻¹ s⁻¹.
In the same order, the values of B7 are 4.9 nM, 0.00068 s⁻¹ and 140000 M⁻¹ s⁻¹.
As for B8, the Kd was determined as 2.4 nM, the koff was determined as 0.0006 s⁻¹ and the kon came to 250000 M⁻¹ s⁻¹.
B9 came in with a Kd of 6.2 nM, a koff of 0.00076 s⁻¹ and a kon of 120000 M⁻¹ s⁻¹.

The target in another experiment is T2, tip-chimeric peptide IhfA5-mIhfB4NTHI. In words: direct binding ELISA: tip chimeric peptide coated at 2 ug/mL, antibody titrated 1:3 in 8 points, anti-human IgG Fc-HRP, absorbance at 450 nm [panel B].
Molecule B10 registered an EC50 of 0.086 µg/mL.

For another experiment the target is unchanged. In words: SPR Biacore 3000, peptide immobilized, HuMab as analyte.
Molecule B10 showed a Kd of 7 nM, a koff of 0.00035 s⁻¹ and a kon of 51000 M⁻¹ s⁻¹.
In the same order, the values of B11 are 3 nM, 0.00021 s⁻¹ and 79000 M⁻¹ s⁻¹.

The target of a further experiment is T1, tail-chimeric peptide IhfA3-IhfB2NTHI. Briefly: direct ELISA #2, peptide coated (curves reaching equilibrium).
B1 showed an EC50 of 0.0427 µg/mL.
Still for that read-out and setting: next, B2: 0.0404 µg/mL; B3: 0.0429 µg/mL; B4: 0.0274 µg/mL.
B5 showed an EC50 of 0.0367 µg/mL.
Still for that read-out and setting: next, B6: 0.028 µg/mL; B7: 0.0408 µg/mL; B8: 0.0294 µg/mL.
The same measure, in the same setting: to B9 belongs 0.0339 µg/mL.

The next experiment addresses T3, native IHFNTHI (integration host factor …). Briefly: SPR Biacore 3000, HuMab immobilized, IHFNTHI as analyte. This is another data set of the same source.
In turn, B1 came in with a Kd of about 5.6 nM, a koff of 0.00043 s⁻¹ and a kon of 77000 M⁻¹ s⁻¹.
For B3 the same measures were 39 nM, 0.0012 s⁻¹ and 33000 M⁻¹ s⁻¹.
B4 returned a Kd of 18 nM, a koff of 0.00073 s⁻¹ and a kon of 25000 M⁻¹ s⁻¹.
For B5 the same measures were about 3.6 nM, 0.00057 s⁻¹ and 160000 M⁻¹ s⁻¹.
For B6 the same measures were about 14.8 nM, 0.00068 s⁻¹ and 46000 M⁻¹ s⁻¹.
On to B7, for which the Kd is about 5.3 nM, the koff is 0.00053 s⁻¹ and the kon amounted to 100000 M⁻¹ s⁻¹.
Take B8: the Kd is about 143 nM, the koff amounted to 0.0011 s⁻¹ and the kon is 7700 M⁻¹ s⁻¹.
Turning to B9, the Kd is about 4.4 nM, the koff came out at 0.00061 s⁻¹ and the kon was 140000 M⁻¹ s⁻¹.
